Assay [1] addresses RPM-1 chimeric HMPV/RSV F protein (HMPV F with the grafted RSV site A/II palivizumab/motavizumab epitope) (human metapneumovirus, B2 strain). Put plainly: SPR; BiOptix 404pi; F proteins captured on NiHC1000m chip through their C-terminal His tag to 120 RU; Fab injected at 300 to 0.14 nM, 100 ul/min; 10 mM HEPES pH 7.2, 150 mM NaCl, 0.005% Tween 20, 50 uM EDTA; simple Langmuir model. On the technique in general: Surface plasmon resonance follows binding to a sensor surface in real time, without labels.

For assay [2] the target is unchanged. The assay is described as follows: SEC; gel filtration of complexes made of RPM-1 and Fab. In general terms: SEC sorts molecules by how far they enter the pores of the column.

B1: motavizumab Fab (affinity-matured variant of palivizumab, anti-RSV F site II/A) (Fab, V domains shown)
VH: QVTLRESGPALVKPTQTLTLTCTFSGFSLSTAGMSVGWIRQPPGKALEWLADIWWDDKKHYNPSLKDRLTISKDTSKNQVVLKVTNMDPADTATYYCARDMIFNFYFDVWGQGTTVTVSS
VL: DIQMTQSPSTLSASVGDRVTITCSASSRVGYMHWYQQKPGKAPKLLIYDTSKLASGVPSRFSGSGSGTEFTLTISSLQPDDFATYYCFQGSGYPFTFGGGTKVEIK
A word on the Kd: it is the constant that tells how readily two partners part at equilibrium. By koff is commonly meant the first-order rate constant of dissociation. A low value points to slow dissociation. One may read the kon as the rate constant with which the complex forms. Higher therefore signals fast association. Take B1: in assay [1], the Kd turned out to be 7.11 pM, the koff was 1.8e-05 s⁻¹, the on-rate (kon) is 2.41e+06 M⁻¹ s⁻¹ and the t1/2 worked out at 10.9 h. This molecule also had a stoichiometry N (Fabs per F trimer) in assay [2] of 3.

(Values after paper PMC4880302.)
